Results published in paper PMC10397247.
One block for each binder: values may come before it.

How the values were obtained:
N6-AA = target: T1, N6-AA; assay: two-hybrid library CCmax;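 further: natural log of median RNA to DNA barcode read ratio; higher means stronger binding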
T1 chain: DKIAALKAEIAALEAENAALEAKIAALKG

P3SHb = target: T2, P3SHb; assay: two-hybrid library CCNG1;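 further: natural log of median RNA to DNA barcode read ratio; higher means stronger binding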
T2 chain: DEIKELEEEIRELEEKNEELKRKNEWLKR

P4SHb = target: T3, P4SHb; assay: two-hybrid library CCNG1;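 further: natural log of median RNA to DNA barcode read ratio; higher means stronger binding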
T3 chain: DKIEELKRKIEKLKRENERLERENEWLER

P5SHb = target: T4, P5SHb; assay: two-hybrid library CCNG1;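 further: natural log of median RNA to DNA barcode read ratio; higher means stronger binding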
T4 chain: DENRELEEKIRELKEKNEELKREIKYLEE

P6SHb = target: T5, P6SHb; assay: two-hybrid library CCNG1
T5 chain: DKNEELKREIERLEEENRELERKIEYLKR

P7SHb = target: T6, P7SHb; assay: two-hybrid library CCNG1
T6 chain: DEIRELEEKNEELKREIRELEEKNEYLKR

P8SHb = target: T7, P8SHb; assay: two-hybrid library CCNG1
T7 chain: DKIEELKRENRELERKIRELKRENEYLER

P9SHb = target: T8, P9SHb; assay: two-hybrid library CCNG1
T8 chain: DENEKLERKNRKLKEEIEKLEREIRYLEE

O13-bS = target: T9, O13-bS; assay: two-hybrid library CCNG1
T9 chain: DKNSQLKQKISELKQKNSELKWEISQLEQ

O15-bS = target: T10, O15-bS; assay: two-hybrid library CCNG1
T10 chain: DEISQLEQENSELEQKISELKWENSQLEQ

O16-bS = target: T11, O16-bS; assay: two-hybrid library CCNG1
T11 chain: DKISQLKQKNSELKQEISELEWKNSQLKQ

O2-bS = target: T12, O2-bS; assay: two-hybrid library CCNG1
T12 chain: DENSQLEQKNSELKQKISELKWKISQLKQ

O3-bS = target: T13, O3-bS; assay: two-hybrid library CCNG1
T13 chain: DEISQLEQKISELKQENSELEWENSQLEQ

O4-bS = target: T14, O4-bS; assay: two-hybrid library CCNG1
T14 chain: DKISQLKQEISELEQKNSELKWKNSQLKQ

O5-bS = target: T15, O5-bS; assay: two-hybrid library CCNG1
T15 chain: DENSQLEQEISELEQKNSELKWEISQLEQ

O6-bS = target: T16, O6-bS; assay: two-hybrid library CCNG1
T16 chain: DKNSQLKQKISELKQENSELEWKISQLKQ

O7-bS = target: T17, O7-bS; assay: two-hybrid library CCNG1
T17 chain: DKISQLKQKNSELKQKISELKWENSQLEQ

O8-bS = target: T18, O8-bS; assay: two-hybrid library CCNG1
T18 chain: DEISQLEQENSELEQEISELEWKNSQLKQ

O9-bS = target: T19, O9-bS; assay: two-hybrid library CCNG1
T19 chain: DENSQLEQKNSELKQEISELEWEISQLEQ

4H1449-AA = target: T20, 4H1449-AA; assay: two-hybrid library CCmax
T20 chain: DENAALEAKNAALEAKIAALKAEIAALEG

4H1593-AA = target: T21, 4H1593-AA; assay: two-hybrid library CCmax; settings: mean of both orientations
T21 chain: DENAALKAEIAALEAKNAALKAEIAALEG

4H1878-AA = target: T22, 4H1878-AA; assay: two-hybrid library CCmax; settings: mean of both orientations
T22 chain: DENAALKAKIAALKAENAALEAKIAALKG

4H235-AA = target: T23, 4H235-AA; assay: two-hybrid library CCmax; settings: mean of both orientations
T23 chain: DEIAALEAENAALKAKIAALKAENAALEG

4H249-AA = target: T24, 4H249-AA; assay: two-hybrid library CCmax; settings: mean of both orientations
T24 chain: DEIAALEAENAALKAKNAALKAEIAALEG

4H2580-AA = target: T25, 4H2580-AA; assay: two-hybrid library CCmax; settings: mean of both orientations
T25 chain: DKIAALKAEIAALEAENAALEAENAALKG

4H2604-AA = target: T26, 4H2604-AA; assay: two-hybrid library CCmax; settings: mean of both orientations
T26 chain: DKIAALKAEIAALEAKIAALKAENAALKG

4H2621-AA = target: T27, 4H2621-AA; assay: two-hybrid library CCmax; settings: mean of both orientations
T27 chain: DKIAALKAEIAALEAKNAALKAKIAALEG

4H2760-AA = target: T28, 4H2760-AA; assay: two-hybrid library CCmax; settings: mean of both orientations
T28 chain: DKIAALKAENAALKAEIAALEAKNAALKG

4H2774-AA = target: T29, 4H2774-AA; assay: two-hybrid library CCmax; settings: mean of both orientations
T29 chain: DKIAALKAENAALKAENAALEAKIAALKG

4H2903-AA = target: T30, 4H2903-AA; assay: two-hybrid library CCmax; settings: mean of both orientations
T30 chain: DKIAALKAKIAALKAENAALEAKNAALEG

4H2947-AA = target: T31, 4H2947-AA; assay: two-hybrid library CCmax; settings: mean of both orientations
T31 chain: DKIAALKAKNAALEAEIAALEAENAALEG

4H2961-AA = target: T32, 4H2961-AA; assay: two-hybrid library CCmax; settings: mean of both orientations
T32 chain: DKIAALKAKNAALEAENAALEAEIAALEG

4H3049-AA = target: T33, 4H3049-AA; assay: two-hybrid library CCmax; settings: mean of both orientations
T33 chain: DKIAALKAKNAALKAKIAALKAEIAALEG

4H3094-AA = target: T34, 4H3094-AA; assay: two-hybrid library CCmax; settings: mean of both orientations
T34 chain: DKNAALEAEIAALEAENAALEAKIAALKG

4H324-AA = target: T35, 4H324-AA; assay: two-hybrid library CCmax; settings: mean of both orientations
T35 chain: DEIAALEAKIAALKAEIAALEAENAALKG

4H341-AA = target: T36, 4H341-AA; assay: two-hybrid library CCmax
T36 chain: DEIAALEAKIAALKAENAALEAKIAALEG

4H3449-AA = target: T37, 4H3449-AA; assay: two-hybrid library CCmax; settings: mean of both orientations
T37 chain: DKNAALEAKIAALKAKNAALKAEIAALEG

4H3619-AA = target: T38, 4H3619-AA; assay: two-hybrid library CCmax; settings: mean of both orientations
T38 chain: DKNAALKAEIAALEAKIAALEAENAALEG

4H3629-AA = target: T39, 4H3629-AA; assay: two-hybrid library CCmax; settings: mean of both orientations
T39 chain: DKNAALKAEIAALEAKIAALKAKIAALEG

4H3777-AA = target: T40, 4H3777-AA; assay: two-hybrid library CCmax; settings: mean of both orientations
T40 chain: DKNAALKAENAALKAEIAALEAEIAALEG

4H380-AA = target: T41, 4H380-AA; assay: two-hybrid library CCmax; settings: mean of both orientations
T41 chain: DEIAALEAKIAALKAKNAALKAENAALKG

4H3915-AA = target: T42, 4H3915-AA; assay: two-hybrid library CCmax; settings: mean of both orientations
T42 chain: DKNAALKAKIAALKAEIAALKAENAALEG

4H3974-AA = target: T43, 4H3974-AA; assay: two-hybrid library CCmax; settings: mean of both orientations
T43 chain: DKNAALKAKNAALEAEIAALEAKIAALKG

4H432-AA = target: T44, 4H432-AA; assay: two-hybrid library CCmax; settings: mean of both orientations
T44 chain: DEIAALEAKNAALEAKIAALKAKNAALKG

4H446-AA = target: T45, 4H446-AA; assay: two-hybrid library CCmax; settings: mean of both orientations
T45 chain: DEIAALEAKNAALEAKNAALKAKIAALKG

4H63-AA = target: T46, 4H63-AA; assay: two-hybrid library CCmax; settings: mean of both orientations
T46 chain: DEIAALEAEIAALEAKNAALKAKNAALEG

4H319-bN = target: T47, 4H319-bN; assay: two-hybrid library CCNG1
T47 chain: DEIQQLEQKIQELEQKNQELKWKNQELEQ

4H3277-bN = target: T48, 4H3277-bN; assay: two-hybrid library CCNG1
T48 chain: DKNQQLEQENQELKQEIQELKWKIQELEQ

4H348-bN = target: T49, 4H348-bN; assay: two-hybrid library CCNG1
T49 chain: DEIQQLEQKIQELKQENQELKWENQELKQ

4H40-bN = target: T50, 4H40-bN; assay: two-hybrid library CCNG1
T50 chain: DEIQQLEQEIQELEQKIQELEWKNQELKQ

4H477-bN = target: T51, 4H477-bN; assay: two-hybrid library CCNG1
T51 chain: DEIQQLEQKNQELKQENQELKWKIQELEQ

4H492-bN = target: T52, 4H492-bN; assay: two-hybrid library CCNG1
T52 chain: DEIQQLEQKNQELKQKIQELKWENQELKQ

4H741-bN = target: T53, 4H741-bN; assay: two-hybrid library CCNG1
T53 chain: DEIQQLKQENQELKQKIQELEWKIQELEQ

interaction score (N6-AA): 1.66
Binder: DKIAALKAEIAALEAENAALEAKIAALKG [N6-AA]

interaction score (P3SHb): 0.389
interaction score (P4SHb): 1.16
interaction score (P5SHb): 0.636
interaction score (P6SHb): 0.81
interaction score (P7SHb): 0.504
interaction score (P8SHb): -0.0984
interaction score (P9SHb): 0.0235
Binder: DEIKELEEEIRELEEKNEELKRKNEWLKR [P3SHb]

interaction score (O13-bS): -1.65
interaction score (O15-bS): -2.27
interaction score (O16-bS): -1.78
interaction score (O2-bS): -0.819
interaction score (O3-bS): -1.55
interaction score (O4-bS): -2.17
interaction score (O5-bS): -2.23
interaction score (O6-bS): -0.545
interaction score (O7-bS): -1.16
interaction score (O8-bS): -1.08
interaction score (O9-bS): -1.08
Binder: DKNSQLKQKISELKQKNSELKWEISQLEQ [O13-bS]

interaction score (4H1449-AA): -0.875
interaction score (4H1593-AA): -1.66
interaction score (4H1878-AA): -1.34
interaction score (4H235-AA): -1.93
interaction score (4H249-AA): -1.66
interaction score (4H2580-AA): -0.863
interaction score (4H2604-AA): -0.197
interaction score (4H2621-AA): -0.636
interaction score (4H2760-AA): -1.16
interaction score (4H2774-AA): -1.47
interaction score (4H2903-AA): -1.54
interaction score (4H2947-AA): -1.1
interaction score (4H2961-AA): -1.66
interaction score (4H3049-AA): -0.585
interaction score (4H3094-AA): -1.53
interaction score (4H324-AA): -0.72
interaction score (4H341-AA): -1.74
interaction score (4H3449-AA): -1.65
interaction score (4H3619-AA): -1.1
interaction score (4H3629-AA): -0.319
interaction score (4H3777-AA): -0.635
interaction score (4H380-AA): -1.53
interaction score (4H3915-AA): -1.06
interaction score (4H3974-AA): 2.16
interaction score (4H432-AA): -1.57
interaction score (4H446-AA): -1.39
interaction score (4H63-AA): -1.09
Binder: DENAALEAKNAALEAKIAALKAEIAALEG [4H1449-AA]

interaction score (4H319-bN): -0.057
interaction score (4H3277-bN): -0.892
interaction score (4H348-bN): -1.38
interaction score (4H40-bN): 0.382
interaction score (4H477-bN): 0.197
interaction score (4H492-bN): -0.916
interaction score (4H741-bN): -0.781
interaction score (O13-bS): -2.53
Binder: DEIQQLEQKIQELEQKNQELKWKNQELEQ [4H319-bN]
